Type in all cases: in vitro ADME
Series [1] in a line: Metabolic stability in kidney S9, SD rats. To be noted: Sprague-Dawley (SD), rat. As to the method:
(§1) Test Example 8: Metabolic Stability of the Compounds of the Present Invention in Kidney S9 from Mice, Rats, Cynomolgus Macaques, and Humans
(§2) To investigate the metabolic stability of the compounds of the present invention in kidney S9 from mice, rats, Cynomolgus macaques, and humans.
(§3) Materials: Kidney S9 from CD-1 mice, SD rats, Cynomolgus macaques, and humans were purchased from BioIVT or XenoTech LLC and stored in a −80° C. refrigerator.
(§4) Experimental procedure: Eight 96-well plates, designated T0, T5, T15, T30, T45, T60, Blank, and NCF60, were prepared. The first six incubation plates corresponded to reaction time points of 0, 5, 15, 30, 45, and 60 minutes, respectively. No test sample or control compound was added to the Blank plate.
(§5) The T0, T5, T15, T30, T45, and T60 plates were added with a 2 μL working solution of the test sample (10 mM of a solution of the compound to be tested in DMSO, diluted to 100 μM with 100% acetonitrile) and 100 μL of a S9 working solution (kidney S9 protein concentration of 1.0 mg/mL), and the Blank plate was only added with the S9 working solution. The above incubation plates were then placed in a 37° C. water bath for pre-incubation for about 10 minutes.
(§6) At the end of the pre-incubation, 98 μL of an auxiliary enzyme working solution was added to each sample well except the TO plate to start the reaction. […]

The nature of series [2]: Metabolic stability in hepatocytes, humans. As to conditions: human, hepatocytes (cryopreserved, suspension), 0.5×10^6 cells/mL. On the procedure: (§7) Test Example 7: Metabolic Stability of the Compounds of the Present Invention in Hepatocytes from Mice, Rats, Cynomolgus Macaques, and Humans
(§8) To investigate the metabolic stability of the compounds of the present invention in hepatocytes from mice, rats, Cynomolgus macaques, and humans.
(§9) Incubations were performed in 96-well plates using an external extraction method. Several 96-well sample precipitation plates, designated T0, T15, T30, T60, T90, TO-MC, T90-MC, and blank matrix, were prepared, respectively. The recovery culture medium and incubation culture medium were removed in advance and placed in a 37° C. water bath for preheating. […]
(§10) At the end of the incubation at the corresponding time point, the incubation plates were removed, from which 25 μL of a compound mixture with the cells and a control compound mixture with the cells were removed and added to sample plates containing 125 μL of stop buffer, respectively. […] All samples were mixed uniformly and then analyzed by the LC-MS/MS method.
(§11) The concentration of the compound to be tested and the concentration of the control in the sample were semi-quantitatively determined by the liquid chromatography-tandem mass spectrometry (LC-MS/MS) method without a standard curve and quality control sample. […]

The nature of series [3]: Metabolic stability in hepatocytes, SD rats. As to conditions: Sprague-Dawley (SD), rat, hepatocytes (cryopreserved, suspension), 0.5×10^6 cells/mL. On the procedure: as §7, §8, §9, §10, §11
The nature of series [4]: Metabolic stability in kidney S9, CD-1 mice. As to conditions: mouse; CD-1 mice kidney S9. As to the method:
as §1, §2, §3, §4, §5, §6

Series [5] in a line: Metabolic stability in hepatocytes, Cynomolgus macaques. To be noted: cynomolgus macaque, hepatocytes (cryopreserved, suspension), 0.5×10^6 cells/mL. On the procedure:
as §7, §8, §9, §10, §11

Structures are written as SMILES. Where a name gives a salt, the structure may show the parent alone. Starred links: 1 amine or outer side, 2 acyl side, 3 side chain; linkers in the order of their positions; H or OH if unused. Positions of bridges follow the written chain, without caps; N, C: chain ends. Non-standard residues stand in square brackets, D forms with d. Residues, ends and D or L forms follow the SMILES beside them. Chains are numbered I, II in the order given. *: point of attachment. TATA = O=C(CC[*:1])N1CN(C(=O)CC[*:2])CN(C(=O)CC[*:3])C1; Dolaproine = CO[C@@H]([C@@H]1CCCN1)[C@@H](C)C(=O)O; Dil = CC[C@H](C)[C@H](NC)[C@@H](CC(=O)O)OC; 1Nal = N[C@@H](Cc1cccc2ccccc12)C(=O)O; X2 = O=C(CCCC(=O)[*:2])NCCC(=O)[*:1]; PABC = O=C(OCc1ccc(N[*:1])cc1)[*:2]; X1 = C[C@@H](N*)[C@@H](O)c1ccccc1; Hyp = O=C(O)[C@@H]1C[C@@H](O)CN1; hArg = N=C(N)NCCCC[C@H](N)C(=O)O; Cit = NC(=O)NCCC[C@H](N)C(=O)O; Pen = CC(C)(S)[C@H](N)C(=O)O; NMeV = CN[C@H](C(=O)O)C(C)C; Sar = CNCC(=O)O

A word on the half-life: it is the time in which the quantity being followed falls by half. A high value points to slow loss. For orientation: microsomal CLint means a measure of how fast metabolising enzymes remove a compound, apart from limits set by blood flow. Higher therefore signals faster metabolism.

Turning to `CC[C@H](C)[C@@H]([C@@H](CC(=O)N1CCC[C@H]1[C@H](OC)[C@@H](C)C(=O)N[C@H](C)[C@@H](O)c1ccccc1)OC)N(C)C(=O)[C@@H](NC(=O)[C@H](C(C)C)N(C)C(=O)OCc1ccc(NC(=O)[C@H](CCCNC(N)=O)NC(=O)[C@@H](NC(=O)CCCC(=O)NCCC(=O)N(C)CC(=O)N(C)CC(=O)N(C)CC(=O)N(C)CC(=O)N(C)CC(=O)N(C)CC(=O)N(C)CC(=O)N(C)CC(=O)N(C)CC(=O)N(C)CC(=O)N[C@H]2CCCCNC(=O)C[C@@H](C(=O)N[C@H]3CSCCC(=O)N4CN5CN(C4)C(=O)CCSC(C)(C)[C@H](NC(=O)[C@@H](CC(=O)O)NC(=O)[C@H](Cc4cccc6ccccc46)NC(=O)[C@@H]4CCCN4C3=O)C(=O)N[C@@H](CCSC)C(=O)N[C@@H](CCCCNC(=N)N)C(=O)N[C@@H](CC(=O)O)C(=O)N[C@@H](Cc3c[nH]c4ccccc34)C(=O)N[C@@H](CO)C(=O)N[C@@H]([C@@H](C)O)C(=O)N3CCC[C@H]3C(=O)N3C[C@H](O)C[C@H]3C(=O)N[C@@H](Cc3c[nH]c4ccccc34)C(=O)N[C@H](C(N)=O)CSCCC5=O)NC(=O)CN(C)C2=O)C(C)C)cc1)C(C)C` [Acetate salt of PDC_2] (I: [Sar][Sar][Sar][Sar][Sar][Sar][Sar][Sar][Sar][Sar]K[Sar]DCP[1Nal][dD][Pen]M[hArg]DWSTP[Hyp]WC-NH2 / II: V[Cit][PABC][NMeV]V[Dil][Dolaproine]-X1; lactam I:11-I:13; linker I:14-I:18-I:28 via TATA; linker I:N-II:N via X2), the half-life at 1 μM was more than 2.42 h in series [1]; more than 3.61 h in series [2]; more than 3.61 h in series [3]; more than 2.42 h in series [4]; more than 3.61 h in series [5]. Besides, the microsomal CLint at 1 μM in series [1] and in series [4] was less than 9.6 µL/min/mg in each case. Besides, the CLint scaled at 1 μM in series [2] (read-out: CLint (liver)) is less than 17.8 mL/min/kg; in series [3] (read-out: CLint (liver)) it was less than 29.9 mL/min/kg; in series [5] (read-out: CLint (liver)), less than 23 mL/min/kg.

(Values after US12539335B2, “Tricyclic polypeptide conjugated drug and use thereof” (CONJUSTAR (ZHUHAI) BIOLOGICS CO., LTD., priority 2021, dated 2026).)
